Laboratory results taken from publication PMC11210774, “Critical domains for NACC2-NTRK2 fusion protein activation” (PLOS ONE, 2024).
One block for each molecule: values may come before it.

Columns and labels:
[1] = biological target: NACC2(Y86A)-NTRK2 (UniProt Q96BF6); experiment: non-reducing SDS-PAGE and immunoblot of multimers; HEK293T lysates in E1A buffer (250 mM NaCl, 50 mM HEPES, 5 mM EDTA, 0.1% NP-40); non-reducing sample buffer (4% SDS, 10 mM NaPO4 pH 7.0); immunoblot for NACC2 or NTRK2; multimer/monomer band ratio by ImageJ, three replicates
[2] = biological target: NACC2-NTRK2(ex4:ex13) fusion protein (UniProt Q96BF6); experiment: as above
[3] = biological target: NACC2(D31N/R45Q)-NTRK2 (UniProt Q96BF6); experiment: as above
[4] = biological target: NACC2(D31N/R45Q)-NTRK2 (UniProt Q96BF6); experiment: co-IP; fusion protein co-expressed with NACC2 in HEK293T; E1A buffer; immunoprecipitation with antibodies against NTRK2 and Protein A-Sepharose at 4°C, immunoblot for NACC2; ratio of NACC2 to the co-immunoprecipitated fusion by ImageJ
[5] = biological target: NACC2(Y86A)-NTRK2 (UniProt Q96BF6); experiment: as above
[6] = biological target: NACC2-NTRK2(ex4:ex13) fusion protein (UniProt Q96BF6); experiment: as above
[7] = biological target: the molecule itself; experiment: non-reducing SDS-PAGE and immunoblot of multimers; HEK293T lysates in E1A buffer (250 mM NaCl, 50 mM HEPES, 5 mM EDTA, 0.1% NP-40); non-reducing sample buffer (4% SDS, 10 mM NaPO4 pH 7.0); immunoblot for NACC2 or NTRK2; multimer/monomer band ratio by ImageJ, three replicates

Molecule: NACC2-NTRK2(ex4:ex13) fusion protein (from UniProt Q96BF6 1-418; Q16620 397-822)
ratio of the multimer band to the monomer band [2]: 44%

Molecule: NACC2(D31N/R45Q)-NTRK2 (from UniProt Q96BF6 1-418; Q16620 397-822)
ratio of the multimer band to the monomer band [3]: 18%

Further lines, with some results ahead:

ratio of the multimer band to the monomer band [1]: 12%
Molecule: NACC2(Y86A)-NTRK2 (from UniProt Q96BF6 1-418; Q16620 397-822)

ratio of NACC2 to the NACC2-NTRK2 fusion with which it was co-immunoprecipitated [4]: 45% | ratio of NACC2 to the NACC2-NTRK2 fusion with which it was co-immunoprecipitated [5]: 15% | ratio of NACC2 to the NACC2-NTRK2 fusion with which it was co-immunoprecipitated [6]: 72%
B1: Nucleus Accumbens-associated protein 2 (NACC2), wild type (natural protein, human, UniProt Q96BF6 1-587, looked up)
chain: MSQMLHIEIPNFGNTVLGCLNEQRLLGLYCDVSIVVKGQAFKAHRAVLAASSLYFRDLFSGNSKSAFELPGSVPPACFQQILSFCYTGRLTMTASEQLVVMYTAGFLQIQHIVERGTDLMFKVSSPHCDSQTAVIEDAGSEPQSPCNQLQPAAAAAAPYVVSPSVPIPLLTRVKHEAMELPPAGPGLAPKRPLETGPRDGVAVAAGAAVAAGTAPLKLPRVSYYGVPSLATLIPGIQQMPYPQGERTSPGASSLPTTDSPTSYHNEEDEEDDEAYDTMVEEQYGQMYIKASGSYAVQEKPEPVPLESRSCVLIRRDLVALPASLISQIGYRCHPKLYSEGDPGEKLELVAGSGVYITRGQLMNCHLCAGVKHKVLLRRLLATFFDRNTLANSCGTGIRSSTSDPSRKPLDSRVLNAVKLYCQNFAPSFKESEMNVIAADMCTNARRVRKRWLPKIKSMLPEGVEMYRTVMGSAAASVPLDPEFPPAAAQVFEQRIYAERRGDAATIVALRTDAVNVDLSAAANPAFDAGEEVDGAGSVIQEVAAPEPLPADGQSPPQPFEQGGGGPSRPQTPAAAARRPEGTYAGTL
notes: NACC2, human, wild type; gene bought from Origene and subcloned into pCDNA3 by EcoRI and XbaI; Expressed alone (multimerization assay) or together with the fusion proteins (co-IP); also called wild-type NACC2; native NACC2; source: HEK293T, transfected (pCDNA3, CaCl2), in lysate (E1A buffer)
ratio of the multimer band to the monomer band [7]: 7%
